Reference: paper PMC3900414

Biological target: T1, hPus1 (79-408) (Homo sapiens, UniProt Q9Y606 79-408)
T1 sequence: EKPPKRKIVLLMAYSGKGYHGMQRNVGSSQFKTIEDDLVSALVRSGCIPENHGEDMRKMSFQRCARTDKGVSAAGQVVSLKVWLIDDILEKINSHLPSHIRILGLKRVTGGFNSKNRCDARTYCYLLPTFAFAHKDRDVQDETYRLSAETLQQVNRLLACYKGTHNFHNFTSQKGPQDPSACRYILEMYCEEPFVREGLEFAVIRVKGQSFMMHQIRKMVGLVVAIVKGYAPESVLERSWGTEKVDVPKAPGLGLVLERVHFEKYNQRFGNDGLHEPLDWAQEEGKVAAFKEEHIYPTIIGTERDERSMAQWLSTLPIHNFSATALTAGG
Experiment: size exclusion chromatography

Binder: GAUGGACUUGAAAUCCAUUGGCGCAGGUUCGAAUCCUGC (structured_RNA) [minimal tRNASer (nt 26-65), unlabeled]
- binding result: binds
